For five molecules, Kd and fold decrease in AnkR AS binding against WT ANK repeats results are on record in publication PMC4358367, “Structural basis of diverse membrane target recognitions by ankyrins” (eLife, 2014).

The target of test [1] is T1, FITC-labeled AnkR_AS peptide.
T1 chain: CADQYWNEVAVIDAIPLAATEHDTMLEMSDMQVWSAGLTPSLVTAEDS
Briefly: fluorescence polarisation. The note with it: chain shown with the change.

Test [2] addresses FITC-labeled AnkR_AS peptide (mouse). In words: fluorescence polarisation; FITC-labeled peptide (~1 µM) titrated with AnkB_repeats WT or mutants; 25°C; 50 mM Tris pH 8.0, 100 mM NaCl, 1 mM DTT, 1 mM EDTA; one-site binding model. (In general: Polarisation of emitted light reports the rotation of a fluorescent probe.)

B1: AnkB_repeats (24 ANK repeats of human 220 kDa ankyrin-B, residues 28–873), Q01484 L366Q; F399Q; L432Q (protein)
chain: KSDSNASFLRAARAGNLDKVVEYLKGGIDINTCNQNGLNALHLAAKEGHVGLVQELLGRGSSVDSATKKGNTALHIASLAGQAEVVKVLVKEGANINAQSQNGFTPLYMAAQENHIDVVKYLLENGANQSTATEDGFTPLAVALQQGHNQAVAILLENDTKGKVRLPALHIAARKDDTKSAALLLQNDHNADVQSKMMVNRTTESGFTPLHIAAHYGNVNVATLLLNRGAAVDFTARNGITPLHVASKRGNTNMVKLLLDRGGQIDAKTRDGLTPLHCAARSGHDQVVELLLERGAPLLARTKNGLSPLHMAAQGDHVECVKHLLQHKAPVDDVTLDYQTALHVAAHCGHYRVTKLLLDKRANPNARALNGQTPLHIACKKNRIKVMELLVKYGASIQAITESGQTPIHVAAFMGHLNIVLLLLQNGASPDVTNIRGETALHMAARAGQVEVVRCLLRNGALVDARAREEQTPLHIASRLGKTEIVQLLLQHMAHPDAATTNGYTPLHISAREGQVDVASVLLEAGAAHSLATKKGFTPLHVAAKYGSLDVAKLLLQRRAAADSAGKNGLTPLHVAAHYDNQKVALLLLEKGASPHATAKNGYTPLHIAAKKNQMQIASTLLNYGAETNIVTKQGVTPLHLASQEGHTDMVTLLLDKGANIHMSTKSGLTSLHLAAQEDKVNVADILTKHGADQDAHTKLGYTPLIVACHYGNVKMVNFLLKQGANVNAKTKNGYTPLHQAAQQGHTHIINVLLQHGAKPNATTANGNTALAIAKRLGYISVVDTLKVVTEEVTTTTTTITEKHKLNVPETMTEVLDVSDEEGDDTMTGDGGEYLRPEDLKELGDD
Broadly, the Kd is a measure of binding affinity in units of concentration. B1 came in with a Kd in test [1] of 0.41 µM.

B2: AnkB_repeats (24 ANK repeats of human 220 kDa ankyrin-B, residues 28–873), Q01484 I267Q; L300Q (protein)
chain: KSDSNASFLRAARAGNLDKVVEYLKGGIDINTCNQNGLNALHLAAKEGHVGLVQELLGRGSSVDSATKKGNTALHIASLAGQAEVVKVLVKEGANINAQSQNGFTPLYMAAQENHIDVVKYLLENGANQSTATEDGFTPLAVALQQGHNQAVAILLENDTKGKVRLPALHIAARKDDTKSAALLLQNDHNADVQSKMMVNRTTESGFTPLHIAAHYGNVNVATLLLNRGAAVDFTARNGQTPLHVASKRGNTNMVKLLLDRGGQIDAKTRDGQTPLHCAARSGHDQVVELLLERGAPLLARTKNGLSPLHMAAQGDHVECVKHLLQHKAPVDDVTLDYLTALHVAAHCGHYRVTKLLLDKRANPNARALNGFTPLHIACKKNRIKVMELLVKYGASIQAITESGLTPIHVAAFMGHLNIVLLLLQNGASPDVTNIRGETALHMAARAGQVEVVRCLLRNGALVDARAREEQTPLHIASRLGKTEIVQLLLQHMAHPDAATTNGYTPLHISAREGQVDVASVLLEAGAAHSLATKKGFTPLHVAAKYGSLDVAKLLLQRRAAADSAGKNGLTPLHVAAHYDNQKVALLLLEKGASPHATAKNGYTPLHIAAKKNQMQIASTLLNYGAETNIVTKQGVTPLHLASQEGHTDMVTLLLDKGANIHMSTKSGLTSLHLAAQEDKVNVADILTKHGADQDAHTKLGYTPLIVACHYGNVKMVNFLLKQGANVNAKTKNGYTPLHQAAQQGHTHIINVLLQHGAKPNATTANGNTALAIAKRLGYISVVDTLKVVTEEVTTTTTTITEKHKLNVPETMTEVLDVSDEEGDDTMTGDGGEYLRPEDLKELGDD
In turn, B2 displayed a dissociation constant (Kd) in test [1] of 3.1 µM.

B3: AnkB_repeats (24 ANK repeats of human 220 kDa ankyrin-B, residues 28–873), Q01484 F131Q; F164Q (protein)
chain: KSDSNASFLRAARAGNLDKVVEYLKGGIDINTCNQNGLNALHLAAKEGHVGLVQELLGRGSSVDSATKKGNTALHIASLAGQAEVVKVLVKEGANINAQSQNGQTPLYMAAQENHIDVVKYLLENGANQSTATEDGQTPLAVALQQGHNQAVAILLENDTKGKVRLPALHIAARKDDTKSAALLLQNDHNADVQSKMMVNRTTESGFTPLHIAAHYGNVNVATLLLNRGAAVDFTARNGITPLHVASKRGNTNMVKLLLDRGGQIDAKTRDGLTPLHCAARSGHDQVVELLLERGAPLLARTKNGLSPLHMAAQGDHVECVKHLLQHKAPVDDVTLDYLTALHVAAHCGHYRVTKLLLDKRANPNARALNGFTPLHIACKKNRIKVMELLVKYGASIQAITESGLTPIHVAAFMGHLNIVLLLLQNGASPDVTNIRGETALHMAARAGQVEVVRCLLRNGALVDARAREEQTPLHIASRLGKTEIVQLLLQHMAHPDAATTNGYTPLHISAREGQVDVASVLLEAGAAHSLATKKGFTPLHVAAKYGSLDVAKLLLQRRAAADSAGKNGLTPLHVAAHYDNQKVALLLLEKGASPHATAKNGYTPLHIAAKKNQMQIASTLLNYGAETNIVTKQGVTPLHLASQEGHTDMVTLLLDKGANIHMSTKSGLTSLHLAAQEDKVNVADILTKHGADQDAHTKLGYTPLIVACHYGNVKMVNFLLKQGANVNAKTKNGYTPLHQAAQQGHTHIINVLLQHGAKPNATTANGNTALAIAKRLGYISVVDTLKVVTEEVTTTTTTITEKHKLNVPETMTEVLDVSDEEGDDTMTGDGGEYLRPEDLKELGDD
B3 registered a dissociation constant (Kd) in test [1] of 2.7 µM.

B4: AnkB_repeats site 3 mutant 'LFL' (Leu366, Phe399 and Leu432 to Gln) (domain or fragment)
chain: KSDSNASFLRAARAGNLDKVVEYLKGGIDINTCNQNGLNALHLAAKEGHVGLVQELLGRGSSVDSATKKGNTALHIASLAGQAEVVKVLVKEGANINAQSQNGFTPLYMAAQENHIDVVKYLLENGANQSTATEDGFTPLAVALQQGHNQAVAILLENDTKGKVRLPALHIAARKDDTKSAALLLQNDHNADVQSKMMVNRTTESGFTPLHIAAHYGNVNVATLLLNRGAAVDFTARNGITPLHVASKRGNTNMVKLLLDRGGQIDAKTRDGLTPLHCAARSGHDQVVELLLERGAPLLARTKNGLSPLHMAAQGDHVECVKHLLQHKAPVDDVTLDYQTALHVAAHCGHYRVTKLLLDKRANPNARALNGQTPLHIACKKNRIKVMELLVKYGASIQAITESGQTPIHVAAFMGHLNIVLLLLQNGASPDVTNIRGETALHMAARAGQVEVVRCLLRNGALVDARAREEQTPLHIASRLGKTEIVQLLLQHMAHPDAATTNGYTPLHISAREGQVDVASVLLEAGAAHSLATKKGFTPLHVAAKYGSLDVAKLLLQRRAAADSAGKNGLTPLHVAAHYDNQKVALLLLEKGASPHATAKNGYTPLHIAAKKNQMQIASTLLNYGAETNIVTKQGVTPLHLASQEGHTDMVTLLLDKGANIHMSTKSGLTSLHLAAQEDKVNVADILTKHGADQDAHTKLGYTPLIVACHYGNVKMVNFLLKQGANVNAKTKNGYTPLHQAAQQGHTHIINVLLQHGAKPNATTANGNTALAIAKRLGYISVVDTLKVVTEEVTTTTTTITEKHKLNVPETMTEVLDVSDEEGDDTMTGDGGEYLRPEDLKELGDD
The molecule B4 showed a fold decrease in AnkR AS binding against WT ANK repeats in test [2] of 3 fold.

B5: AnkB_repeats site 2 mutant 'IL' (Ile267 and Leu300 to Gln) (domain or fragment)
chain: KSDSNASFLRAARAGNLDKVVEYLKGGIDINTCNQNGLNALHLAAKEGHVGLVQELLGRGSSVDSATKKGNTALHIASLAGQAEVVKVLVKEGANINAQSQNGFTPLYMAAQENHIDVVKYLLENGANQSTATEDGFTPLAVALQQGHNQAVAILLENDTKGKVRLPALHIAARKDDTKSAALLLQNDHNADVQSKMMVNRTTESGFTPLHIAAHYGNVNVATLLLNRGAAVDFTARNGQTPLHVASKRGNTNMVKLLLDRGGQIDAKTRDGQTPLHCAARSGHDQVVELLLERGAPLLARTKNGLSPLHMAAQGDHVECVKHLLQHKAPVDDVTLDYLTALHVAAHCGHYRVTKLLLDKRANPNARALNGFTPLHIACKKNRIKVMELLVKYGASIQAITESGLTPIHVAAFMGHLNIVLLLLQNGASPDVTNIRGETALHMAARAGQVEVVRCLLRNGALVDARAREEQTPLHIASRLGKTEIVQLLLQHMAHPDAATTNGYTPLHISAREGQVDVASVLLEAGAAHSLATKKGFTPLHVAAKYGSLDVAKLLLQRRAAADSAGKNGLTPLHVAAHYDNQKVALLLLEKGASPHATAKNGYTPLHIAAKKNQMQIASTLLNYGAETNIVTKQGVTPLHLASQEGHTDMVTLLLDKGANIHMSTKSGLTSLHLAAQEDKVNVADILTKHGADQDAHTKLGYTPLIVACHYGNVKMVNFLLKQGANVNAKTKNGYTPLHQAAQQGHTHIINVLLQHGAKPNATTANGNTALAIAKRLGYISVVDTLKVVTEEVTTTTTTITEKHKLNVPETMTEVLDVSDEEGDDTMTGDGGEYLRPEDLKELGDD
Consider B5, for which the fold decrease in AnkR AS binding against WT ANK repeats in test [2] was 20 fold.
